The values below come from the supplement of paper PMC5998384.

Series [1] relates to HeLa Kyoto. Put plainly: solubility in G1/S (NP-40 vs SDS abundance) (log2 ratio); higher = more soluble. The following applies: cell cycle stage: G1/S.
Series [2] relates to HeLa Kyoto. Briefly: thermal stability score vs G1/S (z-score of summed log2 fold changes over temperatures); higher = more thermally stable than in G1/S.
Series [3] has as its system HeLa Kyoto. Briefly: solubility change mitosis vs G1/S (difference of NP-40 vs SDS log2 ratios) (log2 ratio difference); higher = more soluble in mitosis.
Series [4] concerns HeLa Kyoto. Put plainly: melting temperature (median over replicates), in situ; higher = more thermally stable.
The mark [5] stands for this setting: cell cycle stage: early G1 (4.5 h after nocodazole release).
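For melting temperature (median over replicates), in situ in this document: HeLa Kyoto cells synchronized by double thymidine or nocodazole block, proteins quantified by TMT10plex mass spectrometry, three independent biological replicates.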
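For solubility change mitosis vs G1/S (difference of NP-40 vs SDS log2 ratios) in this document: synchronized HeLa Kyoto cells (double thymidine block for G1/S, nocodazole release for mitosis), protein amounts in NP-40 versus SDS lysates quantified by mass spectrometry, three biological replicates.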
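For solubility in G1/S (NP-40 vs SDS abundance) in this document: HeLa Kyoto cells arrested at G1/S by double thymidine block, proteins quantified by TMT10plex mass spectrometry in mild NP-40 versus SDS extracts, three biological replicates.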
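For thermal stability score vs G1/S (z-score of summed log2 fold changes over temperatures) in this document: synchronized HeLa Kyoto cells, proteins quantified by TMT10plex mass spectrometry, three biological replicates, mitosis taken 0.5 h after nocodazole release, G1/S directly after double thymidine block.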

Regarding “MSGRSKRESRGSTRGKRESESRGSSGRVKRERDREREPEAASSRGSPVRVKREFEPASAREAPASVVPFVRVKREREVDEDSEPEREVRAKNGRVDSEDRRSRHCPYLDTINRSVLDFDFEKLCSISLSHINAYACLVCGKYFQGRGLKSHAYIHSVQFSHHVFLNLHTLKFYCLPDNYEIIDSSLEDITYVLKPTFTKQQIANLDKQAKLSRAYDGTTYLPGIVGLNNIKANDYANAVLQALSNVPPLRNYFLEEDNYKNIKRPPGDIMFLLVQRFGELMRKLWNPRNFKAHVSPHEMLQAVVLCSKKTFQITKQGDGVDFLSWFLNALHSALGGTKKKKKTIVTDVFQGSMRIFTKKLPHPDLPAEEKEQLLHNDEYQETMVESTFMYLTLDLPTAPLYKDEKEQLIIPQVPLFNILAKFNGITEKEYKTYKENFLKRFQLTKLPPYLIFCIKRFTKNNFFVEKNPTIVNFPITNVDLREYLSEEVQAVHKNTTYDLIANIVHDGKPSEGSYRIHVLHHGTGKWYELQDLQVTDILPQMITLSEAYIQIWKRRDNDETNQQGA [USP39]”, the “solubility in G1/S (log2)” value in the series with HeLa Kyoto [1] was -0.4. Further, the figures for the thermal stability score with HeLa Kyoto [2] (setting [5]) and with HeLa Kyoto [2] (cell cycle stage: mitosis) were -0.187 and -0.193, respectively. Moreover, in the series with HeLa Kyoto [3], the “solubility change mitosis (log2)” value was 0.178. Besides, the figures for the melting temperature in the series on HeLa Kyoto [4] (cell cycle stage: G1/S) and with HeLa Kyoto [4] (cell cycle stage: mitosis) were 51.4 °C and 51.9 °C, respectively.

As for “MSGSFELSVQDLNDLLSDGSGCYSLPSQPCNEVTPRIYVGNASVAQDIPKLQKLGITHVLNAAEGRSFMHVNTNANFYKDSGITYLGIKANDTQEFNLSAYFERAADFIDQALAQKNGRVLVHCREGYSRSPTLVIAYLMMRQKMDVKSALSIVRQNREIGPNDGFLAQLCQLNDRLAKEGKLKP [DUSP3]”, in the series with HeLa Kyoto [1], the “solubility in G1/S (log2)” value was determined as 0.676. Also, the thermal stability score was 0.0996 in the series with HeLa Kyoto [2] (setting [5]) and -0.0543 with HeLa Kyoto [2] (cell cycle stage: mitosis). For the same sequence, the “solubility change mitosis (log2)” value with HeLa Kyoto [3] came to 0.131. For the same sequence, the melting temperature came out at 50.4 °C with HeLa Kyoto [4] (cell cycle stage: G1/S) and 51 °C with HeLa Kyoto [4] (cell cycle stage: mitosis).

For “MSGTSSHESFYDSLSDMQEESKNTDFFPGLSAFLSQEEINKSLDLARRAIADSETEDFDSEKEISQIFSTSPASLCEHPSHKETKLGEHASRRPQDNRSTPVQPLAEKQTKSISSPVSKRKPAMSPLLTRPSYIRSLRKAEKRGAKTPSTNVKPKTPHQRKGGPQSQLCDKAANLIEELTSIFKAAKPRNRSPNGESSSPDSGYLSPKNQPSALLSASASQSPMEDQGEMEREVKSPGARHCYQDNQDLAVPHNRKSHPQPHSALHFPAAPRFIQKLRSQEVAEGSRVYLECRVTGNPTPRVRWFCEGKELHNTPDIQIHCEGGDLHTLIIAEAFEDDTGRYTCLATNPSGSDTTSAEVFIEGASSTDSDSESLAFKSRAGAMPQAQKKTTSVSLTIGSSSPKTGVTTAVIQPLSVPVQQVHSPTSYLCRPDGTTTAYFPPVFTKELQNTAVAEGQVVVLECRVRGAPPLQVQWFRQGSEIQDSPDFRILQKKPRSTAEPEEICTLVIAETFPEDAGIFTCSARNDYGSATSTAQLVVTSANTENCSYESMGESNNDHFQHFPPPPPILETSSLELASKKPSEIQQVNNPELGLSRAALQMQFNAAERETNGVHPSRGVNGLINGKANSNKSLPTPAVLLSPTKEPPPLLAKPKLDPLKLQQLQNQIRLEQEAGARQPPPAPRSAPPSPPFPPPPAFPELAACTPPASPEPMSALASRSAPAMQSSGSFNYARPKQFIAAQNLGPASGHGTPASSPSSSSLPSPMSPTPRQFGRAPVPPFAQPFGAEPEAPWGSSSPSPPPPPPPVFSPTAAFPVPDVFPLPPPPPPLPSPGQASHCSSPATRFGHSQTPAAFLSALLPSQPPPAAVNALGLPKGVTPAGFPKKASRTARIASDEEIQGTKDAVIQDLERKLRFKEDLLNNGQPRLTYEERMARRLLGADSATVFNIQEPEEETANQEYKVSSCEQRLISEIEYRLERSPVDESGDEVQYGDVPVENGMAPFFEMKLKHYKIFEGMPVTFTCRVAGNPKPKIYWFKDGKQISPKSDHYTIQRDLDGTCSLHTTASTLDDDGNYTIMAANPQGRISCTGRLMVQAVNQRGRSPRSPSGHPHVRRPRSRSRDSGDENEPIQERFFRPHFLQAPGDLTVQEGKLCRMDCKVSGLPTPDLSWQLDGKPVRPDSAHKMLVRENGVHSLIIEPVTSRDAGIYTCIATNRAGQNSFSLELVVAAKEAHKPPVFIEKLQNTGVADGYPVRLECRVLGVPPPQIFWKKENESLTHSTDRVSMHQDNHGYICLLIQGATKEDAGWYTVSAKNEAGIVSCTARLDVYTQWHQQSQSTKPKKVRPSASRYAALSDQGLDIKAAFQPEANPSHLTLNTALVESEDL [PALLD]”, the “solubility in G1/S (log2)” value with HeLa Kyoto [1] was 0.0775. Further, the thermal stability score with HeLa Kyoto [2] (setting [5]) was determined as 1.21; with HeLa Kyoto [2] (cell cycle stage: mitosis), 3.53. Further, the “solubility change mitosis (log2)” value with HeLa Kyoto [3] is -0.0539. The melting temperature in the series on HeLa Kyoto [4] (cell cycle stage: G1/S) turned out to be 50 °C; in the series on HeLa Kyoto [4] (cell cycle stage: mitosis), 50.5 °C.

Turning to “MSHGPSPRLAESPQLSKGSLLTILGSPSPERMGPADSLPPTPPSGTPSPGPPPALPLPPAPALLADGDWESREELRLRELEEARARAAQMEKTMRRWSDCTANWREKWSKVRAERNRAREEVRQLRQRLDALTKELAGARRERQEAQGECEARGRELARLRGARGVADQTRDGPEPEAEREPVRDVGSERPPGSQELELVESLLKSMPEESEDCWEARSLGAGGPRGSSGRQERSRLPWEDTAATEEEASKLTALRLRLDESQKVLLKEREDKLALSRNIEKLEGELSQWKIKYEELSKTKQEMLKQLSILKEAHQDELGRMSEDLEDELGARSSMDRKMAELRGEMERLQAENAAEWGRRERLETEKLGLERENKKLRAQVGDLEEALARRRRQTASALDCDLRASQAALFEKNKELADLKHVHGKLKKQFQEKVAELAHANRRVEQHEAEVKKLRLRVEELKKELAQAEDELDEAHNQARKLQRSLDEQTEQSENLQVQLEHLQSRLRRQQQNAPLFGKIRSARFGTEEAEDGTSDLDEDEDLQIQVA [CCDC102A]”, the “solubility in G1/S (log2)” value with HeLa Kyoto [1] turned out to be 0.448. Moreover, the values for the thermal stability score with HeLa Kyoto [2] (setting [5]) and in the series with HeLa Kyoto [2] (cell cycle stage: mitosis) were -0.855 and -0.192, respectively. Moreover, the “solubility change mitosis (log2)” value with HeLa Kyoto [3] is 0.0825. Moreover, the melting temperature came to 50.8 °C in the series with HeLa Kyoto [4] (cell cycle stage: G1/S) and 49.3 °C in the series on HeLa Kyoto [4] (cell cycle stage: mitosis).

As to “MSIFPKISLRPEVENYLKEGFMNKEIVTALGKQEAERKFETLLKHLSHPPSFTTVRVNTHLASVQHVKNLLLDELQKQFNGLSVPILQHPDLQDVLLIPVIGPRKNIKKQQCEAIVGAQCGNAVLRGAHVYAPGIVSASQFMKAGDVISVYSDIKGKCKKGAKEFDGTKVFLGNGISELSRKEIFSGLPELKGMGIRMTEPVYLSPSFDSVLPRYLFLQNLPSALVSHVLNPQPGEKILDLCAAPGGKTTHIAALMHDQGEVIALDKIFNKVEKIKQNALLLGLNSIRAFCFDGTKAVKLDMVEDTEGEPPFLPESFDRILLDAPCSGMGQRPNMACTWSVKEVASYQPLQRKLFTAAVQLLKPEGVLVYSTCTITLAENEEQVAWALTKFPCLQLQPQEPQIGGEGMRGAGLSCEQLKQLQRFDPSAVPLPDTDMDSLREARREDMLRLANKDSIGFFIAKFVKCKST [NSUN6]”, in the series on HeLa Kyoto [1], the “solubility in G1/S (log2)” value was found to be 0.29. Besides, the thermal stability score in the series on HeLa Kyoto [2] (setting [5]) was -0.273; in the series on HeLa Kyoto [2] (cell cycle stage: mitosis), 0.177. Also, the “solubility change mitosis (log2)” value with HeLa Kyoto [3] is -0.179. Further, the melting temperature is 51.8 °C with HeLa Kyoto [4] (cell cycle stage: G1/S) and 51.4 °C with HeLa Kyoto [4] (cell cycle stage: mitosis).
